The record followed here is US20110020802, “NUCLEIC ACIDS, METHODS AND KITS FOR THE DIAGNOSIS OF DYT6 PRIMARY TORSION DYSTONIA” (Mount Sinai School of Medicine of New York University, published 2011).

The series addresses T1, THAP1 wild type (Homo sapiens, UniProt Q9NVV9 SEQ:1-213).
T1 sequence: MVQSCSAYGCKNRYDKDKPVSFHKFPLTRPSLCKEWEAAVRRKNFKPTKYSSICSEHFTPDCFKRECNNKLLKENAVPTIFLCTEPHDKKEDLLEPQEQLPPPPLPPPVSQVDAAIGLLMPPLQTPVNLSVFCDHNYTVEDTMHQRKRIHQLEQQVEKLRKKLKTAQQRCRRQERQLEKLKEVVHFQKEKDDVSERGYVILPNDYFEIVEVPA
The series is described as follows: EMSA; specific band supershifted by anti-THAP1 and competed by >200x unlabeled THABS; 150 mM KCl, 20 mM Tris pH 7.5, poly(dI-dC), room temperature. The settings on record: tags: N-terminal V5 (pcDNA3.1/nV5); label: 5'-32P. How it is done: Double-stranded oligonucleotide was prepared by annealing synthetic complementary oligonucleotides (5′-[…]-3′ (SEQ ID NO: 17) and the reverse complement of this oligo 5′ […]-3′ (SEQ ID NO: 48)) in 20 mM Tris/HCl (pH 7.5), 10 mM MgCl2, 50 mM NaCl, 1 mM dithiothreitol (DTT) by heating for 5 min at 95° c, and cooling to room temperature overnight. Probes were end-labeled with [gamma-³²P]ATP using T4 polynucleotide kinase. Unincorporated nucleotides were removed by column chromatography (illustra MicroSpin™ G-25 Columns, GE Healthcare), according to the manufacturer's protocol. […] Following buffer at 150 V at room temperature, gels were dried and exposed to storage Phosphor screens that were scanned and analyzed using a Typhoon phosphorimager (GE Healthcare).
The two constructs were expressed in an in vitro transcription/translation (IVTT) system and assessed by western for equal levels of protein expression (FIG. 4A). When the radiolabeled THABS probe was incubated with the IVTT wild-type THAP1, a major shifted band was detected (FIG. 4B, lane 6, arrowhead). […]

B1: THABS probe (dsDNA)
DNA 1: AGCAAGTAAGGGCAACTACTTCAT
DNA 2: ATGAAGTAGTTGCCCTTACTTGCT
For B1, the binding result is recorded as “binds”.
